Where a chain is given by its changes, count along the chain named. Names may count otherwise.
B1: C5A (XPA23) VL L96T (antibody, V domains shown)
VH: EVQLLESGGGLVQPGGSLRLSCAASGFTFSKYFMFWVRQAPGKGLEWVSVISPSGGMTRYADSVKGRFTISRDNSKNTLYLQMNSLRAEDTAVYYCARVGYGGNSDYWGQGTLVTVSS
VL: DIQMTQSPSSVSASVGDRLTIICRASQDINRWLAWYQQTPGNAPKLLIHSATSLQSGVPSRFSGSGSGTDFTLTINSLQPEDFATYYCQQADSFPTTFGGGTKVEIK
B2: C5A (XPA23) VL L96N (antibody, V domains shown)
VH: B1 VH
VL: B1 VL with T96N
B3: C5A (XPA23) VL L96Q (antibody, V domains shown)
VH: B1 VH
VL: B1 VL with T96Q
B4: C5A (XPA23) VL Q27A (antibody, V domains shown)
VH: B1 VH
VL: B1 VL with Q27A, T96L
B5: C5A (XPA23) VL Q27I (antibody, V domains shown)
VH: B1 VH
VL: B1 VL with Q27I, T96L
B6: C5A (XPA23) VL Q27L (antibody, V domains shown)
VH: B1 VH
VL: B1 VL with Q27L, T96L
B7: C5A (XPA23) VL Q27F (antibody, V domains shown)
VH: B1 VH
VL: B1 VL with Q27F, T96L
B8: C5A (XPA23) VL D28G (antibody, V domains shown)
VH: B1 VH
VL: B1 VL with D28G, T96L
B9: C5A (XPA23) VL D28A (antibody, V domains shown)
VH: B1 VH
VL: B1 VL with D28A, T96L
B10: C5A (XPA23) VL D28V (antibody, V domains shown)
VH: B1 VH
VL: B1 VL with D28V, T96L
B11: C5A (XPA23) VL D28L (antibody, V domains shown)
VH: B1 VH
VL: B1 VL with D28L, T96L
B12: C5A (XPA23) VL D28F (antibody, V domains shown)
VH: B1 VH
VL: B1 VL with D28F, T96L
B13: C5A (XPA23) VL D28W (antibody, V domains shown)
VH: B1 VH
VL: B1 VL with D28W, T96L
B14: C5A (XPA23) VL D28P (antibody, V domains shown)
VH: B1 VH
VL: B1 VL with D28P, T96L
B15: C5A (XPA23) VL N30G (antibody, V domains shown)
VH: B1 VH
VL: B1 VL with N30G, T96L
B16: C5A (XPA23) VL N30A (antibody, V domains shown)
VH: B1 VH
VL: B1 VL with N30A, T96L
B17: C5A (XPA23) VL N30V (antibody, V domains shown)
VH: B1 VH
VL: B1 VL with N30V, T96L
B18: C5A (XPA23) VL N30I (antibody, V domains shown)
VH: B1 VH
VL: B1 VL with N30I, T96L
B19: C5A (XPA23) VL N30L (antibody, V domains shown)
VH: B1 VH
VL: B1 VL with N30L, T96L
B20: C5A (XPA23) VL N30F (antibody, V domains shown)
VH: B1 VH
VL: B1 VL with N30F, T96L
B21: C5A (XPA23) VL N30W (antibody, V domains shown)
VH: B1 VH
VL: B1 VL with N30W, T96L
B22: C5A (XPA23) VL N30P (antibody, V domains shown)
VH: B1 VH
VL: B1 VL with N30P, T96L
B23: C5A (XPA23) VL R31G (antibody, V domains shown)
VH: B1 VH
VL: B1 VL with R31G, T96L
B24: C5A (XPA23) VL R31A (antibody, V domains shown)
VH: B1 VH
VL: B1 VL with R31A, T96L
B25: C5A (XPA23) VL R31V (antibody, V domains shown)
VH: B1 VH
VL: B1 VL with R31V, T96L
B26: C5A (XPA23) VL R31I (antibody, V domains shown)
VH: B1 VH
VL: B1 VL with R31I, T96L
B27: C5A (XPA23) VL R31L (antibody, V domains shown)
VH: B1 VH
VL: B1 VL with R31L, T96L
B28: C5A (XPA23) VL R31F (antibody, V domains shown)
VH: B1 VH
VL: B1 VL with R31F, T96L
B29: C5A (XPA23) VL R31W (antibody, V domains shown)
VH: B1 VH
VL: B1 VL with R31W, T96L
B30: C5A (XPA23) VL H49A (antibody, V domains shown)
VH: B1 VH
VL: B1 VL with H49A, T96L
B31: C5A (XPA23) VL H49L (antibody, V domains shown)
VH: B1 VH
VL: B1 VL with H49L, T96L
B32: C5A (XPA23) VL H49F (antibody, V domains shown)
VH: B1 VH
VL: B1 VL with H49F, T96L
B33: C5A (XPA23) VL H49W (antibody, V domains shown)
VH: B1 VH
VL: B1 VL with H49W, T96L
B34: C5A (XPA23) VL H49P (antibody, V domains shown)
VH: B1 VH
VL: B1 VL with H49P, T96L
B35: C5A (XPA23) VL S50G (antibody, V domains shown)
VH: B1 VH
VL: B1 VL with S50G, T96L
B36: C5A (XPA23) VL S50A (antibody, V domains shown)
VH: B1 VH
VL: B1 VL with S50A, T96L
B37: C5A (XPA23) VL S50V (antibody, V domains shown)
VH: B1 VH
VL: B1 VL with S50V, T96L
B38: C5A (XPA23) VL S50I (antibody, V domains shown)
VH: B1 VH
VL: B1 VL with S50I, T96L
B39: C5A (XPA23) VL S50L (antibody, V domains shown)
VH: B1 VH
VL: B1 VL with S50L, T96L
B40: C5A (XPA23) VL S50W (antibody, V domains shown)
VH: B1 VH
VL: B1 VL with S50W, T96L
B41: C5A (XPA23) VL A51G (antibody, V domains shown)
VH: B1 VH
VL: B1 VL with A51G, T96L
B42: C5A (XPA23) VL A51V (antibody, V domains shown)
VH: B1 VH
VL: B1 VL with A51V, T96L
B43: C5A (XPA23) VL A51L (antibody, V domains shown)
VH: B1 VH
VL: B1 VL with A51L, T96L
B44: C5A (XPA23) VL A51W (antibody, V domains shown)
VH: B1 VH
VL: B1 VL with A51W, T96L
B45: C5A (XPA23) VL A51P (antibody, V domains shown)
VH: B1 VH
VL: B1 VL with A51P, T96L
B46: C5A (XPA23) VL T52A (antibody, V domains shown)
VH: B1 VH
VL: B1 VL with T52A, T96L

Target: binding partner of C5A (XPA23)
Assay: Biacore K-off

B1 and B2 are the same in fold difference in affinity vs original: 0.06 fold for the first, 0.06 fold for the second.

Compared with B3, B4 is higher in fold difference in affinity vs original: 0.21 fold for the first, 1.47 fold for the second.

Compared with B5, B6 is higher in fold difference in affinity vs original: 0.82 fold for the first, 0.83 fold for the second.

First: B7
Second: B8
The fold difference in affinity vs original of the first is higher: 2.96 fold for the first, 1.21 fold for the second.

Compared with B9, B10 is lower in fold difference in affinity vs original: 0.88 fold for the first, 0.85 fold for the second.

Compared with B11, B12 is lower in fold difference in affinity vs original: 9.64 fold for the first, 1.43 fold for the second.

First: B13
Second: B14
The fold difference in affinity vs original of the first is higher: 3.81 fold for the first, 1.17 fold for the second.

Going from B15 to B16, the fold difference in affinity vs original falls from 0.71 fold to 0.61 fold.

Compared with B17, B18 is lower in fold difference in affinity vs original: 0.89 fold for the first, 0.65 fold for the second.

Compared with B19, B20 is higher in fold difference in affinity vs original: 0.68 fold for the first, 1.59 fold for the second.

First: B21
Second: B22
The fold difference in affinity vs original of the first is higher: 1.06 fold for the first, 0.69 fold for the second.

First: B23
Second: B24
The fold difference in affinity vs original of the first is lower: 0.92 fold for the first, 8.48 fold for the second.

Compared with B25, B26 is higher in fold difference in affinity vs original: 0.44 fold for the first, 0.68 fold for the second.

Going from B27 to B28, the fold difference in affinity vs original rises from 0.51 fold to 0.92 fold.

Going from B29 to B30, the fold difference in affinity vs original falls from 0.43 fold to 0.23 fold.

First: B31
Second: B32
The fold difference in affinity vs original of the first is lower: 0.07 fold for the first, 0.5 fold for the second.

First: B33
Second: B34
The fold difference in affinity vs original of the first is lower: 0.21 fold for the first, 0.86 fold for the second.

Compared with B35, B36 is lower in fold difference in affinity vs original: 0.14 fold for the first, 0.13 fold for the second.

Compared with B37, B38 is higher in fold difference in affinity vs original: 0.21 fold for the first, 0.25 fold for the second.

Going from B39 to B40, the fold difference in affinity vs original falls from 0.49 fold to 0.02 fold.

Going from B41 to B42, the fold difference in affinity vs original falls from 3.84 fold to 0.31 fold.

Going from B43 to B44, the fold difference in affinity vs original rises from 0.16 fold to 0.24 fold.

Going from B45 to B46, the fold difference in affinity vs original rises from 0.13 fold to 0.66 fold.
